Reference: patent US12116636B2, “Methods for evaluating tumor cell spheroids using 3D microfluidic cell culture device” (Dana-Farber Cancer Institute, Inc., priority 2017, dated 2024)

System: MC38 MDOTS
Test: RNA-seq of MDOTS after ex vivo treatment
Assay type: cell-based, murine
Details: Day 6
Description: RNA is collected from a subset of the MDOTs within the device after the supernatants have been collected and cDNA libraries for RNA sequencing is generated to evaluate global transcriptome changes associated with treatment regimen on single samples per drug treatment. These types of data may be generated from a variety of clinical specimens. The RNA Advance tissue RNA isolation method (Beckman Coulter) is utilized, which is a bead wash based separation technique, which facilitates elution volumes amenable to sample input for RNA-Seq library preparation. Automated library preparation can be performed using as little as 10 ng of good quality RNA. The RNA Access method from Illumina is utilized, which enriches for the coding region of the genome. Libraries are sequenced on the NextSeq500 platform, as 75 bp Single End to generate approximately 20 million reads per sample. With appropriate adaptors, 24 samples are multiplexed on each NextSeq500 run. The concentration [ng/ul], yield [ng] and quality of RNA (high RIN #by bioanalyzer) derived from the MDOTS are more than sufficient to ensure good quality libraries for subsequent sequencing (FIG. 15).
The STAR RNA sequencing alignment tool (Spliced Transcripts Alignment to a Reference) [STAR_2.5.0a]) is utilized to align the data to the genome (RefSeq gene annotations). […]

B1: IFNγ: interferon gamma used as MC38 MDOTS treatment in RNA-seq (protein, UniProt P01580 23-155, looked up)
Interferon gamma: HGTVIESLESLNNYFNSSGIDVEEKSLFLDIWRNWQKDGDMKILQSQIISFYLRLFEVLKDNQAISNNISVIESHLITTFFSNSKAKKDAFMSIAKFEVNNPQVQRQAFNELIRVVHQLLPESSLRKRKRSRC
In the case of B1, the “expression of IFNγ genes incl. CXCL10, CXCL11, PD-L1, IDO1, IDO2 (RNA-seq) in MC38 MDOTS” value is reported as “induced”.
